Fewer inactive variants are shown than the library holds.

The subject of one data set is biotinyl-Met-oxazolone. Kind of data set: self-aminoacylation, catalytic enhancement (BMO) (fold over background); higher = more active; k-Seq, kA / k0A0; sequences stand for … in GGGAAUGGAUCCACAUCUACGAAUUC…UUCACUGCAGACUUGACGAAGCUG
The method in brief: (§1)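 The uncatalyzed rate is the low-activity peak of a bimodal Gaussian fit, and catalytic enhancement is median kA divided by it. The kA values came from pseudo-first-order fits, with 1000 bootstraps, of per-sequence fraction reacted measured by streptavidin capture, triplicate qPCR and Illumina sequencing. Mutagenized RNA pools with a 21-nt variable region (0.43 μM) were reacted with each biotinyl-aminoacyl-oxazolone at 2–1250 μM in 50 μL HEPES/NaCl/KCl/MgCl2/CaCl2 buffer with 5% acetonitrile, pH 6.9–7.0, for 90 minutes at room temperature.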

A further data set relates to biotinyl-Leu-oxazolone. Kind of data set: self-aminoacylation, catalytic enhancement (BLO) (fold over background); higher = more active; k-Seq, kA / k0A0; sequences stand for … in GGGAAUGGAUCCACAUCUACGAAUUC…UUCACUGCAGACUUGACGAAGCUG
The method in brief:
as §1

The subject of a further data set is biotinyl-Phe-oxazolone. Description: self-aminoacylation, catalytic enhancement (BFO) (fold over background); higher = more active; k-Seq, kA / k0A0; sequences stand for … in GGGAAUGGAUCCACAUCUACGAAUUC…UUCACUGCAGACUUGACGAAGCUG
Put shortly:
as §1

Another data set deals with biotinyl-Trp-oxazolone. Description: self-aminoacylation, catalytic enhancement (BWO) (fold over background); higher = more active; k-Seq, kA / k0A0; sequences stand for … in GGGAAUGGAUCCACAUCUACGAAUUC…UUCACUGCAGACUUGACGAAGCUG
The method in brief: as §1

A further data set deals with biotinyl-Ile-oxazolone. Kind of data set: self-aminoacylation, catalytic enhancement (BIO) (fold over background); higher = more active; k-Seq, kA / k0A0; sequences stand for … in GGGAAUGGAUCCACAUCUACGAAUUC…UUCACUGCAGACUUGACGAAGCUG
The method in brief:
as §1

For another data set, the system named is biotinyl-Val-oxazolone. Description: self-aminoacylation, catalytic enhancement (BVO) (fold over background); higher = more active; k-Seq, kA / k0A0; sequences stand for … in GGGAAUGGAUCCACAUCUACGAAUUC…UUCACUGCAGACUUGACGAAGCUG
Put shortly:
as §1

Regarding “CUACUACAAACAAUCAGUCUG [Fam1A.1 aminoacylation ribozyme variant]”, the self-aminoacylation with biotinyl-Met-oxazolone came to 0.467; with biotinyl-Leu-oxazolone, 0.7; in the data set on biotinyl-Phe-oxazolone, 0.88; with biotinyl-Trp-oxazolone it was 0.554; in the data set on biotinyl-Ile-oxazolone, 0.657; in the data set on biotinyl-Val-oxazolone, 0.732.

As to “CUACUACAAACAAUCGGACUG [Fam1A.1 aminoacylation ribozyme variant]”, the self-aminoacylation amounted to 0.695 with biotinyl-Met-oxazolone; 0.582 in the data set on biotinyl-Leu-oxazolone; 0.703 with biotinyl-Phe-oxazolone; 0.469 in the data set with biotinyl-Trp-oxazolone; 0.852 with biotinyl-Ile-oxazolone; 0.769 in the data set on biotinyl-Val-oxazolone.

For “CUACUACAAACAAUCGGGCUG [Fam1A.1 aminoacylation ribozyme variant]”, the self-aminoacylation turned out to be 0.989 in the data set with biotinyl-Met-oxazolone; 1.07 with biotinyl-Leu-oxazolone; 0.456 in the data set with biotinyl-Phe-oxazolone; 0.83 in the data set with biotinyl-Trp-oxazolone; 1.16 in the data set with biotinyl-Ile-oxazolone; 1.05 in the data set on biotinyl-Val-oxazolone.

Turning to “CUACUACAAACCAUCGGUCUG [Fam1A.1 aminoacylation ribozyme variant]”, the self-aminoacylation with biotinyl-Met-oxazolone amounted to 0.845; in the data set on biotinyl-Leu-oxazolone, 0.702; in the data set with biotinyl-Phe-oxazolone, 0.739; in the data set with biotinyl-Trp-oxazolone, 0.765; in the data set with biotinyl-Ile-oxazolone, 0.837; with biotinyl-Val-oxazolone, 0.822.

Turning to “CUACUACAUACAAUCGGUCUG [Fam1A.1 aminoacylation ribozyme variant]”, the self-aminoacylation was 0.901 in the data set with biotinyl-Met-oxazolone; 0.641 in the data set with biotinyl-Leu-oxazolone; 0.703 with biotinyl-Phe-oxazolone; 0.58 in the data set on biotinyl-Trp-oxazolone; 0.812 in the data set on biotinyl-Ile-oxazolone; 0.782 with biotinyl-Val-oxazolone.

Consider “CUACUCCAAAAAAUCGGUCUG [Fam1A.1 aminoacylation ribozyme variant]”, for which the self-aminoacylation in the data set with biotinyl-Met-oxazolone is 0.674; with biotinyl-Leu-oxazolone it was 0.857; with biotinyl-Phe-oxazolone, 1.33; in the data set on biotinyl-Trp-oxazolone it was 1.06; in the data set on biotinyl-Ile-oxazolone, 0.894; with biotinyl-Val-oxazolone, 0.846.

Take “CUACUCCAAACAAUCCGUCUG [Fam1A.1 aminoacylation ribozyme variant]”: the self-aminoacylation turned out to be 0.636 with biotinyl-Met-oxazolone; 0.759 in the data set on biotinyl-Leu-oxazolone; 0.642 with biotinyl-Phe-oxazolone; 0.582 in the data set on biotinyl-Trp-oxazolone; 0.838 in the data set with biotinyl-Ile-oxazolone; 0.821 in the data set with biotinyl-Val-oxazolone.

For the sequence “CUACUCCAAACAAUCGGGCUG [Fam1A.1 aminoacylation ribozyme variant]”, the self-aminoacylation with biotinyl-Met-oxazolone is 1.61; with biotinyl-Leu-oxazolone, 1.29; with biotinyl-Phe-oxazolone, 1.02; in the data set on biotinyl-Trp-oxazolone, 1.14; in the data set with biotinyl-Ile-oxazolone it was 1.36; in the data set with biotinyl-Val-oxazolone it was 1.01.

Take “CUACUCUUCAAGCAAUCGGUC [Fam1B.1 aminoacylation ribozyme variant]”: the self-aminoacylation in the data set on biotinyl-Met-oxazolone amounted to 0.904; in the data set on biotinyl-Leu-oxazolone, 1.07; in the data set with biotinyl-Phe-oxazolone, 25.4; in the data set on biotinyl-Trp-oxazolone, 11; with biotinyl-Ile-oxazolone it was 0.859; in the data set on biotinyl-Val-oxazolone, 0.924.

As for “CUACUGCAAACAAUCCGUCUG [Fam1A.1 aminoacylation ribozyme variant]”, the self-aminoacylation in the data set with biotinyl-Met-oxazolone worked out at 0.806; in the data set on biotinyl-Leu-oxazolone it was 0.817; with biotinyl-Phe-oxazolone, 1.27; in the data set on biotinyl-Trp-oxazolone it was 0.876; in the data set on biotinyl-Ile-oxazolone it was 0.953; with biotinyl-Val-oxazolone, 0.801.

Turning to “CUACUGCAAACAAUCGGUCUC [Fam1A.1 aminoacylation ribozyme variant]”, the self-aminoacylation with biotinyl-Met-oxazolone came out at 0.916; with biotinyl-Leu-oxazolone it was 0.716; in the data set with biotinyl-Phe-oxazolone it was 0.785; in the data set with biotinyl-Trp-oxazolone it was 0.681; in the data set on biotinyl-Ile-oxazolone, 0.855; in the data set on biotinyl-Val-oxazolone, 0.885.

Regarding “CUACUGCAAACAAUCGGUCUU [Fam1A.1 aminoacylation ribozyme variant]”, the self-aminoacylation in the data set on biotinyl-Met-oxazolone was found to be 0.963; in the data set on biotinyl-Leu-oxazolone it was 0.953; with biotinyl-Phe-oxazolone, 1.06; in the data set with biotinyl-Trp-oxazolone, 0.857; in the data set with biotinyl-Ile-oxazolone, 0.974; in the data set with biotinyl-Val-oxazolone it was 0.836.

Regarding “CUACUGCAAACAAUGGGUCUG [Fam1A.1 aminoacylation ribozyme variant]”, the self-aminoacylation worked out at 1.2 with biotinyl-Met-oxazolone; 1.13 in the data set on biotinyl-Leu-oxazolone; 1.5 in the data set with biotinyl-Phe-oxazolone; 1.12 with biotinyl-Trp-oxazolone; 1.25 in the data set with biotinyl-Ile-oxazolone; 1.08 with biotinyl-Val-oxazolone.

Turning to “CUACUGCAACCAAUCGGUCUG [Fam1A.1 aminoacylation ribozyme variant]”, the self-aminoacylation came to 0.585 in the data set with biotinyl-Met-oxazolone; 0.495 with biotinyl-Leu-oxazolone; 0.691 in the data set with biotinyl-Phe-oxazolone; 0.608 with biotinyl-Trp-oxazolone; 0.53 in the data set on biotinyl-Ile-oxazolone; 0.567 in the data set with biotinyl-Val-oxazolone.

As to “CUACUGCUAACAAUCGGUCUG [Fam1A.1 aminoacylation ribozyme variant]”, the self-aminoacylation in the data set on biotinyl-Met-oxazolone was 0.491; with biotinyl-Leu-oxazolone it was 0.597; in the data set on biotinyl-Phe-oxazolone, 0.437; in the data set on biotinyl-Trp-oxazolone it was 0.418; with biotinyl-Ile-oxazolone, 0.538; with biotinyl-Val-oxazolone, 0.559.

Consider “CUACUUAAAACAAUAGGUCUG [Fam1A.1 aminoacylation ribozyme variant]”, for which the self-aminoacylation was determined as 1.15 in the data set on biotinyl-Met-oxazolone; 0.893 in the data set on biotinyl-Leu-oxazolone; 0.984 in the data set with biotinyl-Phe-oxazolone; 0.747 in the data set on biotinyl-Trp-oxazolone; 0.928 in the data set with biotinyl-Ile-oxazolone; 0.934 in the data set on biotinyl-Val-oxazolone.

With “CUACUUAAAACAAUCCGUCUG [Fam1A.1 aminoacylation ribozyme variant]”, the self-aminoacylation in the data set on biotinyl-Met-oxazolone is 0.876; in the data set with biotinyl-Leu-oxazolone, 0.756; with biotinyl-Phe-oxazolone, 0.461; with biotinyl-Trp-oxazolone, 0.547; with biotinyl-Ile-oxazolone it was 0.799; with biotinyl-Val-oxazolone, 0.905.

Consider “CUACUUAAAACAAUCGGGCUG [Fam1A.1 aminoacylation ribozyme variant]”, for which the self-aminoacylation in the data set with biotinyl-Met-oxazolone amounted to 1.05; in the data set on biotinyl-Leu-oxazolone, 0.999; in the data set on biotinyl-Phe-oxazolone, 0.623; in the data set on biotinyl-Trp-oxazolone, 0.924; in the data set on biotinyl-Ile-oxazolone, 1.31; in the data set on biotinyl-Val-oxazolone, 1.02.

Consider “CUACUUAAAACACUCGGUCUG [Fam1A.1 aminoacylation ribozyme variant]”, for which the self-aminoacylation in the data set on biotinyl-Met-oxazolone was determined as 0.758; with biotinyl-Leu-oxazolone, 0.882; in the data set with biotinyl-Phe-oxazolone, 0.731; in the data set with biotinyl-Trp-oxazolone it was 0.762; in the data set on biotinyl-Ile-oxazolone, 0.992; with biotinyl-Val-oxazolone, 0.792.

In the case of “CUACUUAAAACCAUCGGUCUG [Fam1A.1 aminoacylation ribozyme variant]”, the self-aminoacylation turned out to be 1.1 in the data set with biotinyl-Met-oxazolone; 0.846 in the data set on biotinyl-Leu-oxazolone; 1.22 in the data set with biotinyl-Phe-oxazolone; 1.36 with biotinyl-Trp-oxazolone; 0.927 with biotinyl-Ile-oxazolone; 0.923 in the data set on biotinyl-Val-oxazolone.

For the sequence “CUACUUAAACCAAUCGGUCUG [Fam1A.1 aminoacylation ribozyme variant]”, the self-aminoacylation is 0.693 in the data set on biotinyl-Met-oxazolone; 0.594 in the data set on biotinyl-Leu-oxazolone; 0.538 with biotinyl-Phe-oxazolone; 0.473 with biotinyl-Trp-oxazolone; 0.88 in the data set on biotinyl-Ile-oxazolone; 0.67 with biotinyl-Val-oxazolone.

“CUACUUAAUACAAUCGGUCUG [Fam1A.1 aminoacylation ribozyme variant]”: the self-aminoacylation with biotinyl-Met-oxazolone turned out to be 0.89; in the data set on biotinyl-Leu-oxazolone, 0.761; with biotinyl-Phe-oxazolone, 0.835; in the data set on biotinyl-Trp-oxazolone, 0.631; in the data set with biotinyl-Ile-oxazolone it was 0.782; in the data set with biotinyl-Val-oxazolone, 0.849.

Take “CUACUUCAAAAAAUCGGUCAG [Fam1A.1 aminoacylation ribozyme variant]”: the self-aminoacylation came out at 0.722 in the data set on biotinyl-Met-oxazolone; 0.653 with biotinyl-Leu-oxazolone; 3.51 in the data set with biotinyl-Phe-oxazolone; 1.82 with biotinyl-Trp-oxazolone; 0.845 in the data set on biotinyl-Ile-oxazolone; 0.613 in the data set with biotinyl-Val-oxazolone.

As for “CUACUUCAAAAAAUCGGUUUG [Fam1A.1 aminoacylation ribozyme variant]”, the self-aminoacylation was found to be 0.73 in the data set with biotinyl-Met-oxazolone; 0.84 with biotinyl-Leu-oxazolone; 9.83 with biotinyl-Phe-oxazolone; 6.33 in the data set with biotinyl-Trp-oxazolone; 1.03 in the data set on biotinyl-Ile-oxazolone; 0.695 with biotinyl-Val-oxazolone.

In the case of “CUACUUCAAAAAUUCGGUCUG [Fam1A.1 aminoacylation ribozyme variant]”, the self-aminoacylation stood at 1.37 in the data set on biotinyl-Met-oxazolone; 1.65 in the data set with biotinyl-Leu-oxazolone; 3.5 with biotinyl-Phe-oxazolone; 1.12 in the data set on biotinyl-Trp-oxazolone; 1.44 in the data set on biotinyl-Ile-oxazolone; 1.45 in the data set with biotinyl-Val-oxazolone.

These data come from the supplement of paper PMC9233669.
